Results taken from US7629437.

Sequence of Recombinant human βI tryptase (chain, as listed by the source): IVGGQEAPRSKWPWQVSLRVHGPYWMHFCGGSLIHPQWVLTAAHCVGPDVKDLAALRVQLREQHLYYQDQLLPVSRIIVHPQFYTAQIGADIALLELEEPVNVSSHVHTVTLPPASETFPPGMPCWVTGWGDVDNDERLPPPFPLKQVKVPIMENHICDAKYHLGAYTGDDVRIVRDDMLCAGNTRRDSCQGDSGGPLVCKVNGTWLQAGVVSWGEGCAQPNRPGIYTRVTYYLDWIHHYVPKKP

Substance: Human thrombin
- Km (Ac-Nle-Thr-Pro-Lys-ACC): 125 µM
- kcat (Ac-Nle-Thr-Pro-Lys-ACC): 33.7 s⁻¹
- kcat/Km (Ac-Nle-Thr-Pro-Lys-ACC): 280000 M⁻¹ s⁻¹
- Km (Ac-Nle-Thr-Pro-Lys-AMC): 115 µM
- kcat (Ac-Nle-Thr-Pro-Lys-AMC): 31 s⁻¹
- kcat/Km (Ac-Nle-Thr-Pro-Lys-AMC): 260000 M⁻¹ s⁻¹
- Km (Ac-Leu-Gly-Pro-Lys-AMC): 160 µM
- kcat (Ac-Leu-Gly-Pro-Lys-AMC): 2.3 s⁻¹
- kcat/Km (Ac-Leu-Gly-Pro-Lys-AMC): 15000 M⁻¹ s⁻¹
- Km (Ac-Leu-Gly-Pro-Lys-ACC): 195 µM
- kcat (Ac-Leu-Gly-Pro-Lys-ACC): 3.2 s⁻¹
- kcat/Km (Ac-Leu-Gly-Pro-Lys-ACC): 18000 M⁻¹ s⁻¹

Substance: Recombinant human βI tryptase
- Km (Ac-PRNR-ACC): 16.5 µM
- kcat (Ac-PRNR-ACC): 21.8 s⁻¹
- kcat/Km (Ac-PRNR-ACC): 1.31e+06 M⁻¹ s⁻¹
- Km (Ac-PANK-ACC): 110 µM
- kcat (Ac-PANK-ACC): 20.3 s⁻¹
- kcat/Km (Ac-PANK-ACC): 180000 M⁻¹ s⁻¹
- Km (Ac-PRNK-ACC): 8.9 µM
- kcat (Ac-PRNK-ACC): 16.8 s⁻¹
- kcat/Km (Ac-PRNK-ACC): 1.89e+06 M⁻¹ s⁻¹
- preference (kcat/Km) over Ac-PRTK-ACC (Ac-PRNK-ACC): A minimal preference, approximately two-fold, for P2-asparagine over P2-threonine
- Km (Ac-PRTK-ACC): 14.7 µM
- kcat (Ac-PRTK-ACC): 18.7 s⁻¹
- kcat/Km (Ac-PRTK-ACC): 1.27e+06 M⁻¹ s⁻¹

Substance: Recombinant human βII tryptase
- Km (Ac-PRNR-ACC): 18.6 µM
- kcat (Ac-PRNR-ACC): 20.9 s⁻¹
- kcat/Km (Ac-PRNR-ACC): 1.12e+06 M⁻¹ s⁻¹
- Km (Ac-PANK-ACC): 133 µM
- kcat (Ac-PANK-ACC): 19.1 s⁻¹
- kcat/Km (Ac-PANK-ACC): 140000 M⁻¹ s⁻¹
- Km (Ac-PRNK-ACC): 14.5 µM
- kcat (Ac-PRNK-ACC): 17.8 s⁻¹
- kcat/Km (Ac-PRNK-ACC): 1.23e+06 M⁻¹ s⁻¹
- preference (kcat/Km) over Ac-PRTK-ACC (Ac-PRNK-ACC): A minimal preference, approximately two-fold, for P2-asparagine over P2-threonine
- Km (Ac-PRTK-ACC): 23.4 µM
- kcat (Ac-PRTK-ACC): 18.3 s⁻¹
- kcat/Km (Ac-PRTK-ACC): 780000 M⁻¹ s⁻¹
